Assay results as given in the supplement of paper PMC11136658.

Tested on: peptide library, one residue held at a place counted from the Y acceptor
Assay: relative phosphorylation of the sub-library (ratio to the mean residue at this position); higher = residue favoured
Procedure, shortened: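 Every value reflects phosphorylation relative to the mean randomized residue. The sum of the 18 randomized residues, or 16 in the Ser/Thr-free library, served to normalize intensities at each position, which were then multiplied by that number. Intensities came from phosphorimaging with ImageQuant of biotinylated Tyr-centred peptides captured on streptavidin membranes after 90 min with purified recombinant kinases and 50 μM ATP plus γ-32P-ATP.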

LIMK2, construct: Full length, human (from UniProt P53671)
relative phosphorylation
Conditions | at +1 | at +2 | at +3 | at +4 | at +5 | at -1 | at -2 | at -3 | at -4 | at -5
A fixed | 0.976 | 0.966 | 1.08 | 1.3 | 0.842 | 1.01 | 0.854 | 1.04 | 1.16 | 1.03
D fixed | 0.585 | 0.603 | 0.651 | 0.577 | 0.528 | 0.594 | 0.554 | 0.548 | 0.717 | 0.683
E fixed | 0.556 | 0.664 | 0.635 | 0.693 | 0.554 | 0.615 | 0.56 | 0.529 | 0.643 | 0.723
F fixed | 0.891 | 1.1 | 0.986 | 0.945 | 0.84 | 0.819 | 0.936 | 0.877 | 0.858 | 0.92
G fixed | 0.979 | 1.06 | 1.1 | 1.48 | 1.07 | 1.08 | 1.08 | 1.24 | 1.27 | 1.05
H fixed | 1.33 | 1.11 | 1.25 | 1.39 | 1.13 | 1.05 | 1.18 | 1.14 | 0.993 | 1.13
I fixed | 0.695 | 0.788 | 0.744 | 0.691 | 0.53 | 0.782 | 0.82 | 0.632 | 0.691 | 0.818
K fixed | 1.65 | 1.47 | 1.31 | 1.43 | 1.73 | 1.54 | 1.51 | 1.6 | 1.46 | 1.46
L fixed | 0.739 | 0.931 | 0.795 | 0.891 | 0.749 | 0.896 | 0.86 | 0.865 | 0.815 | 0.849
M fixed | 0.822 | 1.01 | 1.1 | 0.899 | 0.75 | 0.922 | 0.857 | 0.669 | 0.79 | 0.744
N fixed | 0.958 | 0.851 | 0.879 | 0.724 | 1.07 | 1.1 | 1.07 | 1.09 | 0.928 | 0.852
P fixed | 1.23 | 1.31 | 1.33 | 1.4 | 1.13 | 1.28 | 1.26 | 1.33 | 1.19 | 1.15
Q fixed | 1.05 | 0.775 | 0.831 | 0.66 | 1.12 | 0.944 | 0.911 | 1.13 | 0.988 | 0.893
R fixed | 1.79 | 1.28 | 1.3 | 1.19 | 2 | 1.65 | 1.6 | 1.59 | 1.55 | 1.52
V fixed | 0.647 | 0.84 | 0.78 | 0.713 | 0.689 | 0.715 | 0.887 | 0.765 | 0.783 | 0.774
W fixed | 1.1 | 1.23 | 1.22 | 1.02 | 1.28 | 0.986 | 1.05 | 0.96 | 1.16 | 1.4
pThr fixed | 0.62 | 0.618 | 0.541 | 0.618 | 0.406 | 0.623 | 0.566 | 0.539 | 0.717 | 0.671
pTyr fixed | 0.617 | 0.693 | 0.604 | 0.497 | 0.519 | 0.868 | 0.658 | 0.599 | 0.627 | 0.759
